One data set concerns C666 derived xenografts. As to the kind of experiment: In vivo suppression assay, C666 xenograft. The text has this: To determine the antitumor efficacy of the new nanoprobes in vivo, their therapeutic effects were investigated in C666 and HeLa derived xenografts in BALB/c nude mice. The mice were randomly divided into five groups: (1) control (PBS), (2) UCNP, (3) UCNP-P5, (4) UCNP-P6, (5) UCNP-P7. In order to recapitulate the clinical setting of drug delivery, intravenous injection (via a tail vein) was used to deliver these agents to the immunocompromised animal.
In vivo suppression assays: EBV-positive C666 and EBV-negative HeLa cells were suspended in 200 μL of serum-free RMPI 1640 and DMEM respectively. Female BALB/c nude mice (6-8 weeks) which obtained from HKU were then injected with the cells in the right flank. Intravenous injections were performed when the average tumor volumes reached ˜200 mm^3. 0.25 mg/tumor dose of UCNP and UCNP-Pn [n=5, 6 and 7 (SEQ ID NO: 5, 6, 7)] in […] PBS buffer were injected through tail vein of mice using a 24-gauge syringe. Mice injected with the same volume of PBS buffer served as control. The body weight and tumor volumes of the mice were measured three times per week; in which the latter is calculated by (L×W^2)/2, where L and W are the longer and shorter tumor dimensions respectively. Intravenous injection at the tail vein were performed twice a week and the mice were sacrificed after 33-day experimental period; the tumors were extracted and weighed. The treatment groups are unknown to the investigators for the experimental and data analysis processes. The animal experiments conducted were approved by the Department of Health of the HKSAR Government. All animal procedures are within the Guidelines for Care and Use of Laboratory Animals of HKBU and approved by the Animal Ethics Committee of HKBU.
Hematoxylin and eosin (H&E) staining: In general, the transplanted C666 and HeLa derived tumor tissues were collected and fixed with formalin, followed by embedding in paraffin. The histologic sections were then stained with hematoxylin and eosin. Other major organ tissues (heart, liver, spleen, lung, kidney, brain) were conducted in the same procedures.

Data set [1] can be described thus: Peptide release from nanoprobes under various time intervals (UV-vis absorbance). It counts as physicochemical. The note with it: 0.5 mg/mL. An excerpt: The stability and capability of cleavage of the pH linker were also studied. […] More importantly, TEM images of UCNP-P5 at different pH buffers were observed and investigated in FIG. 1, providing direct evidence on pH-responsive peptide release from UCNP.

In data set [2] the test system is EBV-positive C666 cells. The experiment in a line: Two-photon confocal imaging, C666. It counts as cell-based. The conditions noted are these: mainly from the nuclei, 24 h incubation. The protocol: After the study of cellular uptake, fluorescent confocal microscopy was used to study the sub-cellular localization with the same set of EBV-/LMP1-positive and -negative cell lines. All these cell lines were treated with as-prepared samples for different time intervals of 1 h, 3 h, 6 h, 12 h and 24 h. Fluorescence signals in the cells were imaged under 980 nm excitation.
The cells were then co-stained with 0.05 mM nuclear dye DRAQ5 for 0.5 h for confocal imaging with a Leica SP8 confocal microscope equipped with a coherent femtosecond laser (690-1050 nm), argon laser (432 nm, 457 nm and 488 nm), He—Ne laser (632 nm), UV lamp. A stage-top cell culture chamber was also used to maintain the atmospheric conditions of 2-7% CO2 and a temperature of 37° C.

Data set [3] can be described thus: Peptide release from nanoprobes under various pH buffers (UV-vis absorbance). The data set is classed as physicochemical. The note with it: 24 h in buffer, 0.5 mg/mL. An excerpt:
The stability and capability of cleavage of the pH linker were also studied. […] More importantly, TEM images of UCNP-P5 at different pH buffers were observed and investigated in FIG. 1, providing direct evidence on pH-responsive peptide release from UCNP. […]

The subject of data set [4] is p65. As to the kind of experiment: Western blot of p65 (NF-κB) in C666 cells. The data set is classed as cell-based. An excerpt: (§1) NF-κB signaling pathway is critical for the survival of EBV-infected tumor cells. Here we investigated if our nanoprobes could affect this oncogenic pathway. EBV-positive LCL3 and C666 cells were used as models, EBV-negative HK1 cells were used as control and Western blot was used to analyze the protein expression of p65, a major transcription factor in the NF-κB family. […] GAPDH and Histone are regarded as internal standards in cytosolic and nuclear fractions, respectively. […] This is consistent with the cellular uptake results.
(§2) Western blotting: EBV-positive C666, LCL3 and EBV-negative HK1 cell pellets were treated with phosphatase and protease inhibitors at 0-4° C. for 30 min. The total protein concentrations were calculated by protein absorbance. The protein was resolved by sodium dodecyl sulfate-polyacrylamide gel electrophoresis (SDS-PAGE) and transferred to cellulose filter membranes. The membranes were blocked with 3% BSA in Tris-buffered saline in 0.1% Tween 20 (TBST) for 1 h with gentle shaking and subsequently incubated with primary antibodies (1:1000) in 3% BSA in TBST at 4° C. for overnight. After rinsing with TBST buffer three times, the blots were then incubated with corresponding secondary anti-rabbit antibody (1:6000) for 1 h. After that, the blots were rinsed again with 3% BSA in TBST for 1 h shaking at room temperature. Lastly, the density of bands was determined by image analysis system after washing with TBST buffer three times.
For orientation: A western blot detects proteins with antibodies after separation by electrophoresis.

Data set [5] relates to EBV-positive C666 cells. The experiment in a line: MTT cytotoxicity assay, C666 cells. The note with it: 24 h. The protocol: The inhibitory effects of the novel nanoprobes on both EBV-infected cancer cells and non-EBV-infected cancer cells were investigated by MTT assays to test the cell viability. The cytotoxic assays were performed in EBV-positive C666 and NPC43 cells, LMP1-positive LCL3 and Raji cells, and the LMP1-positive and -negative HK1 cell pair. HK1, MRC-5 and HeLa cell lines are EBV-negative and they serve as negative controls. […] In addition, UCNP-P4, EBNA1-specific peptide coated UCNPs was included as control group, so the ability of inhibiting EBV-related cancer cells can be directly compared with UCNP-Pn [n=5, 6 and 7 (SEQ ID NO: 5, 6, 7)].
In vitro cytotoxic assays: The cytotoxicity of our nanoprobes was determined by MTT reduction assay. The cells (3×10^3 per well) were seeded onto 96-well plates and incubated overnight, followed by treatment with Pn [n=5, 6 and 7 (SEQ ID NO: 5, 6, 7)], UCNP, UCNP-Pn [n=5, 6 and 7 (SEQ ID NO: 5, 6, 7)] and UCNP-P4 individually at 37° C., 5% CO2 for 24 h in dark. The cell monolayers were rinsed with PBS and 50 μL of MTT, 3-(4,5-dimethylthiazol-2-yl)-2,5-diphenyltetrazolium bromide solution (0.5 mg mL^−1) was added per well and the cells were further incubated for 3 h at 37° C. The solution was subsequently discarded, and the formazan crystals were dissolved in 100 μL of DMSO per well under shaking. The absorptions of the formazan crystal solutions at 540 nm and 690 nm were measured using a dual-wavelength Labsystem Multiskan microplate reader (Merck Eurolab).
(Tetrazolium assays rely on reduction of a dye to a coloured formazan, in cell work by metabolically active cells.)

In data set [6] the test system is p65. The experiment in a line: Western blot of p65 (NF-κB) in LCL3 cells. The data set is classed as cell-based.
Text: as §1, §2

Consider five compounds from US11938195B2, “Upconversion nanoparticle peptide conjugates” (BP InnoMed Limited, priority 2021, dated 2024).

Where a SMILES comes first, the peptide text is derived from it. Where no end group is shown, it is not given here. [ ]: non-standard residue; d: D form. Ahx = NCCCCCC(=O)O

With “UCNP-P7: UCNP is NaGdF4:Yb^3+, Er^3+@NaGdF4 and the plurality of polypeptides is Ahx-FWLYGGRrRKGGYFMVF (SEQ ID NO: 7) ([Ahx]FWLYGGR[dR]RKGGYFMVF; also: UCNP conjugate)”, the “Effect on average tumor size” value in the data set on C666 derived xenografts (12.5 mg/kg, intravenous (tail vein), twice a week, 33 days) is listed as “no obvious effect on the tumor size”. For the same compound, the Body weight result with C666 derived xenografts (C666 tumor-bearing mice, 33-day experimental period) is given as “slight reduction of body weight”. The Peptide release rate in data set [1] (1 h) was found to be 0%; in data set [1] (3 h) it was 0%; in data set [1] (6 h), 0.2%; in data set [1] (12 h) it was 0.7%; in data set [1] (24 h), 1.0%; in data set [1] (3 day), 1.6%. In addition, the Peptide release rate in data set [1] (7 day) is given as 2.6%; in data set [3] (pH 5.0), 81.2%; in data set [3] (pH 5.5), 58.5%; in data set [3] (pH 6.0), 48.2%; in data set [3] (pH 6.5) it was 36.1%; in data set [3] (pH 7.0) it was 7.4%. Further, the Peptide release rate in data set [3] (pH 7.4) stood at 0%. In addition, the “Responsive emission enhancement (lambda scan)” value with EBV-positive C666 cells [2] was “two-fold”.
As for `CSCC[C@H](NC(=O)[C@H](Cc1ccccc1)NC(=O)[C@H](Cc1ccc(O)cc1)NC(=O)CCCCCN)C(=O)N[C@H](C(=O)N[C@@H](Cc1ccccc1)C(=O)NCC(=O)NCC(=O)N[C@@H](CCCNC(=N)N)C(=O)N[C@H](CCCNC(=N)N)C(=O)N[C@@H](CCCNC(=N)N)C(=O)N[C@@H](CCCCN)C(=O)NCC(=O)NCC(=O)N[C@@H](Cc1ccccc1)C(=O)N[C@@H](Cc1c[nH]c2ccccc12)C(=O)N[C@@H](CC(C)C)C(=O)N[C@@H](Cc1ccc(O)cc1)C(=O)O)C(C)C` [P5, -Ahx-YFMVFGGRrRKGGFWLY (SEQ ID NO:5)] (H-[Ahx]YFMVFGGR[dR]RKGGFWLY-OH; C-terminus assumed), the entries for the “Decreased p65 expression, nuclear fraction” value in the data set with p65 [4] and in the data set with p65 [6] were 89% and 86%, respectively. The “Cytotoxicity of free peptides (MTT cell viability)” value (shortened to “Cytotoxicity of free peptides”) in the data set with EBV-positive C666 cells [5] is “capable of selectively targeting and killing EBV-infected cells”.
Take `CSCC[C@H](NC(=O)[C@H](Cc1ccccc1)NC(=O)[C@H](Cc1ccc(O)cc1)NC(=O)CNC(=O)CNC(=O)[C@H](CCCCN)NC(=O)[C@H](CCCNC(=N)N)NC(=O)[C@@H](CCCNC(=N)N)NC(=O)[C@H](CCCNC(=N)N)NC(=O)CNC(=O)CNC(=O)[C@H](Cc1ccc(O)cc1)NC(=O)[C@H](CC(C)C)NC(=O)[C@H](Cc1c[nH]c2ccccc12)NC(=O)[C@H](Cc1ccccc1)NC(=O)CCCCCN)C(=O)N[C@H](C(=O)N[C@@H](Cc1ccccc1)C(=O)O)C(C)C` [P7, -Ahx-FWLYGGRrRKGGYFMVF (SEQ ID NO:7)] (H-[Ahx]FWLYGGR[dR]RKGGYFMVF-OH): in the data set on EBV-positive C666 cells [5], the “Cytotoxicity of free peptides” value is “capable of selectively targeting and killing EBV-infected cells”.
Regarding “NaGdF4:Yb^3+, Er^3+@NaGdF4 [UCNP, reference compound]”, the “Tumor uptake (ICP-MS biodistribution)” value in the data set on C666 derived xenografts (mouse, in vivo) was “nearly undetectable in the tumor”.
Regarding `CSCC[C@H](NC(=O)[C@H](Cc1ccccc1)NC(=O)[C@H](Cc1ccc(O)cc1)NC(=O)CNC(=O)CNC(=O)[C@H](CCCCN)NC(=O)[C@H](CCCNC(=N)N)NC(=O)[C@@H](CCCNC(=N)N)NC(=O)[C@H](CCCNC(=N)N)NC(=O)CCCCCN)C(=O)N[C@H](C(=O)N[C@@H](Cc1ccccc1)C(=O)NCC(=O)NCC(=O)N[C@@H](Cc1ccccc1)C(=O)N[C@@H](Cc1c[nH]c2ccccc12)C(=O)N[C@@H](CC(C)C)C(=O)N[C@@H](Cc1ccc(O)cc1)C(=O)O)C(C)C` [P6, -Ahx-RrRKGGYFMVFGGFWLY (SEQ ID NO:6)] (H-[Ahx]R[dR]RKGGYFMVFGGFWLY-OH; C-terminus assumed), in the data set on EBV-positive C666 cells [5], the “Cytotoxicity of free peptides” value was “capable of selectively targeting and killing EBV-infected cells”.
